Tests used:
[1] = biological target: BG505 SOSIP.664 trimer (HIV-1 isolate BG505 (Clade A))
[2] = biological target: BG505 SOSIP.664 trimer (HIV-1 isolate BG505 (Clade A)); test: SPR

**Q.** For PGT151 IgG (antibody), which neutralization of BG505 pseudovirus in a TZM-bl assay, IC50 [1] is on record?
**A.** 0.043 µg/mL

**Q.** What does the source list for PGT151 Fab?
**A.** KD1 (site 1, heterogeneous-ligand model) [2]: < 0.1 nM; KD2 (site 2, heterogeneous-ligand model) [2]: 27 nM; Kd [2]: 2 nM; Sm1 (stoichiometry of site 1, heterogeneous-ligand model) (Fab molecules per trimer) [2]: 1.2; Sm1 + Sm2 (cumulative stoichiometry, heterogeneous-ligand model) (Fab molecules per trimer) [2]: 1.9; Sm2 (stoichiometry of site 2, heterogeneous-ligand model) (Fab molecules per trimer) [2]: 0.7; koff [2]: 0.00018 s⁻¹; koff1 (site 1, heterogeneous-ligand model) [2]: < 1e-05 s⁻¹; koff2 (site 2, heterogeneous-ligand model) [2]: 0.00076 s⁻¹; kon [2]: 87000 M⁻¹ s⁻¹; kon1 (site 1, heterogeneous-ligand model) [2]: 140000 M⁻¹ s⁻¹; kon2 (site 2, heterogeneous-ligand model) [2]: 28000 M⁻¹ s⁻¹; stoichiometry N (Fab molecules per trimer) [2]: 1.9

From publication PMC10221750
